Experimental data reported in the RNAGym collection of RNA variant scans (doi:10.1093/molbev/msab373).

B1: Azoarcus group I ribozyme (parent)
chain: GUGCCUUGCGCCGGGAAACCACGCAAGGGAUGGUGUCAAAUUCGGCGAAACCUAAGCGCCCGCCCGGGCGUAUGGCAACGCCGAGCCAAGCUUCGGCGCCUGCGCCGAUGAAGGUGUAGAGACUAGACGGCACCCACCUAAGGCAAACGCUAUGGUGAAGGCAUAGUCCAGGGAGUGGCGAAAGUCACACAAACCGG

Variants of: B1
Assay: reverse-splicing fitness (ratio to wild type); higher = more active; in vitro selection; Mg2+ level not given
Method in brief: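 An in vitro group I ribozyme library with randomized positions was T7-transcribed and gel-purified. In triplicate, 10 pmol RNA in EPPS pH 7.5 was reacted with 50 pmoles of a 30-nt RNA substrate for 1 h at 37 °C across several added MgCl2 levels (1–48 mM), then stopped with EDTA. Products were reverse transcribed from a substrate-complementary primer, PCR-amplified and sequenced (HiSeq 4000). Fitness is a variant's read proportion after selection over that before, normalised to wild type.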
C82G A111U A145G C150U C169A U176C showed a reverse-splicing fitness of 0.0164. C82G A111U A145G C150U C169A U176A showed a reverse-splicing fitness of 0.0163. For C82G A111U A145G C150U C169A U176G, the reverse-splicing fitness was 0.00701. In the case of C82G A111U A145G C150A C169G U176A, the reverse-splicing fitness is reported as 0.0179. Variant C82G A111U A145G C150A C169G U176G has a reverse-splicing fitness of 0.00671. In the case of C82G A111U A145G C150A C169G U176C, the reverse-splicing fitness is reported as 0.0282. Variant C82G A111U A145G C169G has a reverse-splicing fitness of 0.00953. Work on C82G A111U A145G C169U yielded a reverse-splicing fitness of 0.0131. C82G A111U A145G C169A gave a reverse-splicing fitness of 0.0087. Work on C82G A111U A120U C150A C169A U176C yielded a reverse-splicing fitness of 0.00429. C82G A111U A120U C150A C169A U176G showed a reverse-splicing fitness of 0.00233. C82G A111U A120U C150A C169A U176A showed a reverse-splicing fitness of 0.00677. For C82G A111U A145C C150G C169A U176G, the reverse-splicing fitness was 0.00713. Work on C82G A111U A145C C150G C169A U176C yielded a reverse-splicing fitness of 0.00812. C82G A111U A145C C150G C169A U176A showed a reverse-splicing fitness of 0.00976. With C82G A111U A145C C150U C169U U176A the reverse-splicing fitness was 0.0136. For C82G A111U A145C C150U C169U U176C, the reverse-splicing fitness was 0.0098. C82G A111U A145C C150U C169U U176G showed a reverse-splicing fitness of 0.00613. With C82G A111U A145G C150G C169A the reverse-splicing fitness was 0.00977. Variant C82G A111U A145G C150G C169G has a reverse-splicing fitness of 0.00715. C82G A111U A145G C150G C169U showed a reverse-splicing fitness of 0.00972. For C82G A111U A145C C150U U176C, the reverse-splicing fitness was 0.0544. Variant C82G A111U A145C C150U U176G has a reverse-splicing fitness of 0.0188. C82G A111U A145C C150U U176A gave a reverse-splicing fitness of 0.0473. Variant C82G A111U A120U C150G C169A U176C has a reverse-splicing fitness of 0.00545. For C82G A111U A120U C150G C169A U176A, the reverse-splicing fitness was 0.00533. With C82G A111U A120U C150G C169A U176G the reverse-splicing fitness was 0.00291. For C82G A111U A145U C150A, the reverse-splicing fitness was 0.0284. With C82G A111U A120U A145G C169A the reverse-splicing fitness was 0.00459. With C82G A111U A120U A145G C169G the reverse-splicing fitness was 0.00479. With C82G A111U A120U A145G C169U the reverse-splicing fitness was 0.00483. Work on C82G A111U A145C C150A C169G U176G yielded a reverse-splicing fitness of 0.00716. C82G A111U A145C C150A C169G U176A gave a reverse-splicing fitness of 0.0227. In the case of C82G A111U A145C C150A C169G U176C, the reverse-splicing fitness is reported as 0.0155. Variant C82G A111U A120U A145G C150U C169G has a reverse-splicing fitness of 0.00641. C82G A111U A120U A145G C150U C169U showed a reverse-splicing fitness of 0.00655. For C82G A111U A120U A145G C150U C169A, the reverse-splicing fitness was 0.00699. With C82G A111U A120U C150A C169G U176A the reverse-splicing fitness was 0.00827. In the case of C82G A111U A120U C150A C169G U176G, the reverse-splicing fitness is reported as 0.00223. In the case of C82G A111U A120U C150A C169G U176C, the reverse-splicing fitness is reported as 0.00406. Work on C82G A111U A120U A145G C150U U176G yielded a reverse-splicing fitness of 0.00433. C82G A111U A120U A145G C150U U176A showed a reverse-splicing fitness of 0.0103. C82G A111U A120U A145G C150U U176C showed a reverse-splicing fitness of 0.0151. Work on C82G A111U A120U A145U C150A C169U U176C yielded a reverse-splicing fitness of 0.00276. Variant C82G A111U A120U A145U C150A C169U U176G has a reverse-splicing fitness of 0.00195. Variant C82G A111U A120U A145U C150A C169U U176A has a reverse-splicing fitness of 0.00313. Work on C82G A111U A145G C150A C169U U176A yielded a reverse-splicing fitness of 0.0166. Work on C82G A111U A145G C150A C169U U176C yielded a reverse-splicing fitness of 0.0149. For C82G A111U A145G C150A C169U U176G, the reverse-splicing fitness was 0.00791. C82G A111U A145C C169U U176C gave a reverse-splicing fitness of 0.0119. In the case of C82G A111U A145C C169U U176A, the reverse-splicing fitness is reported as 0.014. With C82G A111U A145C C169U U176G the reverse-splicing fitness was 0.00474. C82G A111U A145C C150A C169A U176G gave a reverse-splicing fitness of 0.0075. Variant C82G A111U A145C C150A C169A U176A has a reverse-splicing fitness of 0.0125. In the case of C82G A111U A145C C150A C169A U176C, the reverse-splicing fitness is reported as 0.00716. C82G A111U A120U A145U C150U C169A U176G gave a reverse-splicing fitness of 0.00252. In the case of C82G A111U A120U A145U C150U C169A U176C, the reverse-splicing fitness is reported as 0.0027. For C82G A111U A120U A145U C150U C169A U176A, the reverse-splicing fitness was 0.00283. Variant C82G A111U A120U C150A C169U has a reverse-splicing fitness of 0.00448. C82G A111U A120U C150A C169A showed a reverse-splicing fitness of 0.0047. C82G A111U A120U C150A C169G showed a reverse-splicing fitness of 0.00506. Variant C82G A111U A120U A145U C150G C169U U176G has a reverse-splicing fitness of 0.00286. Variant C82G A111U A120U A145U C150G C169U U176C has a reverse-splicing fitness of 0.0029. Variant C82G A111U A120U A145U C150G C169U U176A has a reverse-splicing fitness of 0.00286. With C82G A111U A145C C150G U176G the reverse-splicing fitness was 0.00504. C82G A111U A145C C150G U176A showed a reverse-splicing fitness of 0.0157. With C82G A111U A145C C150G U176C the reverse-splicing fitness was 0.0238. In the case of C82G A111U A120U A145G C150G C169U U176G, the reverse-splicing fitness is reported as 0.00391. Work on C82G A111U A120U A145G C150G C169U U176A yielded a reverse-splicing fitness of 0.0076. For C82G A111U A120U A145G C150G C169U U176C, the reverse-splicing fitness was 0.00721. Variant C82G A111U A120U A145G C169G U176A has a reverse-splicing fitness of 0.00533. C82G A111U A120U A145G C169G U176C gave a reverse-splicing fitness of 0.00515. With C82G A111U A120U A145G C169G U176G the reverse-splicing fitness was 0.00172. Work on C82G A111U A145C C169G U176A yielded a reverse-splicing fitness of 0.0258. C82G A111U A145C C169G U176C showed a reverse-splicing fitness of 0.0144. C82G A111U A145C C169G U176G gave a reverse-splicing fitness of 0.00528. C82G A111U A120U A145G C150U C169U U176C gave a reverse-splicing fitness of 0.00501. For C82G A111U A120U A145G C150U C169U U176G, the reverse-splicing fitness was 0.00302. For C82G A111U A120U A145G C150U C169U U176A, the reverse-splicing fitness was 0.00518. C82G A111U A120U A145G C150A C169A U176G showed a reverse-splicing fitness of 0.00334. Work on C82G A111U A120U A145G C150A C169A U176A yielded a reverse-splicing fitness of 0.00821. In the case of C82G A111U A120U A145G C150A C169A U176C, the reverse-splicing fitness is reported as 0.00438. In the case of C82G A111U A120U C150G, the reverse-splicing fitness is reported as 0.00761.
